Source: patent US20220135694A1, “NOVEL CD40-BINDING ANTIBODIES” (LAVA THERAPEUTICS B.V., priority 2019, published 2022)

B1: V15t: monovalent anti-CD40 VHH V15 with C-terminal Myc- and His6-tag, SEQ ID NO:16 (protein)
VHH: EVQLQESGGGLVQAGGSLRLSCVTSGSAFSSDTMGWFRQAPGKQRELVASISSRGVREYADSVKGRFTISRDNAKNTVYLQMNSLQPEDTAVYYCNRGALGLPGYRPYNNWGQGTQVTVSSGLEGHSDHMEQKLISEEDLNRISDHHHHHH
modifications: antibody sequence
B2: V19t: monovalent anti-CD40 VHH V19 with C-terminal Myc- and His6-tag, SEQ ID NO:15 (protein)
VHH: QVQLQESGGGLVQAGGSLRLSCAASGRTFGRSAMGWFRQAPGKEREFVAAIGTRGGSTKYADSVKGRFTISTDNASNTVYLQMDSLKPEDTAVYRCAVRGPGYPSAAIFQDEYHYWGQGTQVTVSSGLEGHSDHMEQKLISEEDLNRISDHHHHHH
modifications: antibody sequence
B3: V19S76K-5C8 (bispecific antibody)
chain: QVQLQESGGGLVQAGGSLRLSCAASGRTFGRSAMGWFRQAPGKEREFVAAIGTRGGSTKYADSVKGRFTISTDNAKNTVYLQMDSLKPEDTAVYRCAVRGPGYPSAAIFQDEYHYWGQGTQVTVSSGGGGSEVQLVESGGGLVQAGGSLRLSCAASGRPFSNYAMGWFRQAPGKEREFVAAISWSGGSTSYADSVKGRFTISRDNAKNTVYLQMNSPKPEDTAIYYCAAQFSGADYGFGRLGIRGYEYDYWGQGTQVTVSS
notes: also called bispecific anti-CD40-anti-Vγ9Vδ2 TCR VHH V19S76K-5C8; bsVHH

Key:
primary CLL cells = experiment: Monovalent VHH binding to primary CLL cells, flow cytometry; set-up: species or system human; conditions: n=5 samples; FIG. 2B
Text: Peripheral blood (PB) mononuclear cells (PBMCs, ≥95% CD5^+CD19^+) were isolated from PB samples from untreated CLL patients and cryopreserved as described previously (Hallaert et al. (2008), Blood 112(13):5141-9). The study was approved by the medical ethics committee at the Amsterdam UMC. Written informed consent from all subjects was obtained. Thawed cells were kept in Iscove's Modified Dulbecco's Medium (IMDM; 12440-053, Thermo Fisher Scientific), supplemented with 10% fetal calf serum (F7524, Merck), 200 mM L-glutamine (25030-123, Thermo Fisher Scientific), 0.05 mM β-mercapto-ethanol (M6250, Merck) and 10.000 U/mL penicillin/streptomycin (15140-122, Thermo Fisher Scientific), hereafter referred to as complete IMDM.
CD40 expression on primary CLL cells was confirmed and VHH binding was tested as described in Example 2.

CD40 [1] = molecular target: T1, CD40 (Homo sapiens, UniProt P25942); experiment: CD40 antagonistic activity in primary CLL cells: pre-incubation, then rmCD40L for 48 h; format: cell-based; conditions: 30 min pre-incubation, then rmCD40L 100 ng/mL for 48 hours; FIG. 4A-C
T1 construct: Primary chronic lymphocytic leukemia (CLL) cells express CD40 on the cell surface; endogenous in cells; host or cells: primary CLL PBMCs from untreated CLL patients
T1 sequence (P25942 21-277): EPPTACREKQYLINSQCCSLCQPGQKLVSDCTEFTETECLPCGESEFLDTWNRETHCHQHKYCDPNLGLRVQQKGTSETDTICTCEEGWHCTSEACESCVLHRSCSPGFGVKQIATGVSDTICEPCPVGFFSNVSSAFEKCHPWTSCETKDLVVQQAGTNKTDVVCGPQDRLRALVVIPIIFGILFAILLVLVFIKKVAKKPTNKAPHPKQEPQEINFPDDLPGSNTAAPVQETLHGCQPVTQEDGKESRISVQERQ
Method: PBMCs (≥90% CD5^+CD19^+) from untreated CLL patients were obtained and cryopreserved as described in […]. Thawed cells were kept in complete IMDM.
To test whether the VHH antagonizes CD40 stimulation, primary CLL PBMCs were pre-incubated with VHH or medium control for 30 minutes at 37° C. and subsequently cultured for 48 hours in the presence of rmCD40L (100 ng/mL).
After 48 hours, cells were analyzed by flow cytometry as described in Example 4.
To assess whether binding of the VHH has antagonistic effects, primary CLL PBMCs were pre-incubated with V19S76K-5C8 or medium control and then cultured with rmCD40L for 48 hours and analyzed by flow cytometry as described in Example 5.

[2] = molecular target: T2, human CD40 (CD40-transfected HEK293T cells) (Homo sapiens, UniProt P25942); experiment: Monovalent VHH binding to CD40-transfected HEK293T cells, Myc-tag flow cytometry; conditions: for binding to CD40-expressing cells: detection of the Myc tag, FIG. 1B; for average geometric mean fluorescence intensity (Myc-tag): CD40-transfected HEK293T cells, 2 experiments
T2 construct: expressed in transfected cells; host or cells: HEK293T
T2 sequence (P25942 21-277): as above
Method: The embryonic kidney cell line HEK293T, either wildtype (WT) or transfected with human CD40, was grown in Dulbecco's Modified Eagle Medium (41965-039, Thermo Fisher Scientific, Waltham, Mass., USA), supplemented with 10% fetal calf serum (F7524, Merck, Kenilworth, N.J., USA), 200 mM L-glutamine (25030-123, Thermo Fisher Scientific), 0.05 mM β-mercapto-ethanol (M6250, Merck) and 10,000 U/mL penicillin/streptomycin (15140-122, Thermo Fisher Scientific), hereafter referred to as complete DMEM.
CD40 expression on CD40-transfected cells was confirmed by incubation with a PE-conjugated anti-CD40 antibody (IM1936U, Beckman Coulter, Brea, Calif., USA) for 20 minutes at 4° C. […] Bound VHH was detected by sequential incubation with mouse-anti-Myc tag (05-274, Merck) and AF488-conjugated goat-anti-mouse (A-11001, Thermo Fisher Scientific) antibodies for 20 minutes at 4° C.
Samples were measured on a FACSCanto cytometer (BD Biosciences, Franklin Lakes, N.J., USA) and analyzed with Flowjo MacV10.

CD40 [3] = molecular target: T1, CD40; experiment: CD40 agonistic activity in primary CLL cells, 48 h, flow cytometry; format: cell-based; conditions: various concentrations, FIG. 3A-C
Method: PBMCs (≥90% CD5^+CD19^+) from untreated CLL patients were obtained and cryopreserved as described in Example 3. Thawed cells were kept in complete IMDM.
To assess whether binding of the VHH to CD40 has agonistic effects, primary CLL PBMCs were cultured for 48 hours in the presence of VHH, medium control or recombinant multimeric CD40 ligand (rmCD40L; 100 ng/mL, Bioconnect).
After 48 hours, cells were harvested, washed and incubated with AF700-conjugated anti-CD19 (557921), FITC-conjugated anti-CD80 (6109965), APC-conjugated anti-CD86 (555660, all BD Biosciences), PE-conjugated anti-CD5 (12-0059-42, Thermo Fisher Scientific) and PECy7-conjugated anti-CD95 (305621, Biolegend, San Diego, Calif., USA) antibodies for 20 minutes at 4° C. Alternatively, after 48 hours, cells were harvested and viability was measured using Mitotracker Orange (25-minute incubation at 37° C.) and To-pro-3 (10-minute incubation at room temperature; both Thermo Fisher Scientific). Samples were measured on a FACSCanto cytometer (BD Biosciences) and analyzed with Flowjo MacV10.
To assess whether binding of the VHH has agonistic effects, primary CLL PBMCs were cultured with the indicated concentrations of V19S76K-5C8, medium control or rmCD40L for 48 hours and analyzed by flow cytometry as described in Example 4.

human CD40 [4] = molecular target: T3, human CD40 (human, UniProt P25942 21-277); experiment: flow cytometry, CD40+ CII cell line (n=3), non-linear regression curve
T3 construct: In the assays it stood on CD40-transfected HEK293T cells, primary CLL cells or the CLL-derived CII cell line; also called tumor necrosis factor receptor superfamily member 5; TNR5_HUMAN
T3 sequence (P25942 21-277 limits assumed): as the sequence (P25942 21-277) above
Method: (§1) FIG. 6: V19S76K-5C8 binds to CD40⁺ and Vγ9Vδ2+ cells. Cell lines were incubated with V19S76K-5C8 or medium control and bound bsVHH was detected using anti-llama IgG heavy and light chain antibodies by flow cytometry. (A) Bar plots and (B) non-linear regression analysis of V19S76K-5C8 binding to healthy donor-derived Vγ9Vδ2-T cell lines (n=3). (C) Bar plots and (D) non-linear regression analysis of V19S76K-5C8 binding to […] CD40⁺ CII cell line (n=3). […] (A, C: repeated-measures one-way ANOVA followed by Dunnett's post hoc test compared to condition without bsVHH; B, D: non-linear regression analysis).

[5] = molecular target: human Vγ9Vδ2 T cell receptor (human) (UniProt Q99603); experiment: flow cytometry on healthy donor-derived Vγ9Vδ2-T cell lines, anti-llama IgG detection, non-linear regression
human CD40 [6] = molecular target: T3, human CD40; experiment: flow cytometry on CD40+ CII cells, anti-llama IgG detection, non-linear regression
Method: as §1

[7] = molecular target: human Vγ9Vδ2 T cell receptor (human) (UniProt Q99603); experiment: flow cytometry, healthy donor-derived Vγ9Vδ2-T cell lines (n=3), non-linear regression curve

| Molecule | binding to primary CLL cells (primary CLL cells) | prevention of CD40L-induced CD40 stimulation (viability, CD86 and CD95 expression) (CD40 [1]) | binding to CD40-expressing cells [2] | CD40 stimulation (viability, CD86 and CD95 expression) (CD40 [3]) | average geometric mean fluorescence intensity (Myc-tag) ([2]; VHH concentration 1 pM) | average geometric mean fluorescence intensity (Myc-tag) ([2]; VHH concentration 10 pM) | average geometric mean fluorescence intensity (Myc-tag) ([2]; VHH concentration 100 pM) | average geometric mean fluorescence intensity (Myc-tag) ([2]; VHH concentration 1 nM) | average geometric mean fluorescence intensity (Myc-tag) ([2]; VHH concentration 10 nM) | average geometric mean fluorescence intensity (Myc-tag) ([2]; VHH concentration 100 nM) | EC50 (read off the curve) (human CD40 [4]) [nM] | Kd [5] [nM] | Kd (human CD40 [6]) [nM] | EC50 (read off the curve) [7] [nM] |
| --- | --- | --- | --- | --- | --- | --- | --- | --- | --- | --- | --- | --- | --- | --- |
| B1 | higher binding intensity than V12t | prevented CD40 stimulation in a dose-dependent manner | bound to the CD40-expressing cells | did not induce any of these effects |  |  |  |  |  |  |  |  |  |  |
| B2 | higher binding intensity than V12t | prevented CD40 stimulation in a dose-dependent manner | bound to the CD40-expressing cells | did not induce any of these effects | 5031 | 4938 | 5538 | 6783 | 9101 | 16175 |  |  |  |  |
| B3 |  |  |  |  |  |  |  |  |  |  | ~10 | 1.2 | 10.9 | 1 |
